# System: Escherichia coli TOP10
# Experiment: shrunken log2 fold change of peptide-encoding DNA abundance (4.5 h post-induction vs induction); higher = less antimicrobial activity (less host growth inhibition)
# Conditions: time post-induction: 4.5 h; library: site-saturation at positions 5, 18, 19, 20
# 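Note: peptides expressed intracellularly from a pBAD plasmid library in pooled LB shake-flask culture, induced with 0.3% L-arabinose, DNA abundance read by NGS, three biological replicates, DESeq2 with apeglm shrinkage.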
row,Sequence,shrunken log2 fold change
1,RRIRDRPPRLPRPRPRPLVMPRP,0.0567
2,RRIRTRPPRLPRPRPRPQLPPRP,0.107
3,RRIRCRPPRLPRPRPRPVISPRP,-0.154
4,RRIRWRPPRLPRPRPRPKVEPRP,-0.0433
5,RRIRARPPRLPRPRPRPRTLPRP,0.226
6,RRIRIRPPRLPRPRPRPCQGPRP,-0.0156
7,RRIRFRPPRLPRPRPRPYKSPRP,-0.382
8,RRIRIRPPRLPRPRPRPMHHPRP,-0.4
9,RRIRDRPPRLPRPRPRPGWPPRP,0.514
10,RRIRNRPPRLPRPRPRPKCIPRP,-0.223
11,RRIRTRPPRLPRPRPRPGHEPRP,0.0552
12,RRIRMRPPRLPRPRPRPACYPRP,0.223
13,RRIRDRPPRLPRPRPRPRRQPRP,0.161
14,RRIRLRPPRLPRPRPRPYQQPRP,-0.18
15,RRIRKRPPRLPRPRPRPTPCPRP,0.692
16,RRIRYRPPRLPRPRPRPHDGPRP,0.015
17,RRIRHRPPRLPRPRPRPVVVPRP,-0.149
18,RRIRIRPPRLPRPRPRPIFEPRP,-0.0533
19,RRIRQRPPRLPRPRPRPRALPRP,0.125
20,RRIRARPPRLPRPRPRPQRHPRP,0.212
21,RRIRERPPRLPRPRPRPDWPPRP,0.108
22,RRIRARPPRLPRPRPRPCPEPRP,0.179
23,RRIRWRPPRLPRPRPRPLWGPRP,0.08
24,RRIRGRPPRLPRPRPRPCCIPRP,0.214
25,RRIRYRPPRLPRPRPRPDSTPRP,-0.112

row,Sequence,shrunken log2 fold change
1,RRIRARPPRLPRPRPRPFFQPRP,0.107
2,RRIRARPPRLPRPRPRPSMFPRP,0.00699
3,RRIRCRPPRLPRPRPRPLEKPRP,-0.072
4,RRIRKRPPRLPRPRPRPVRRPRP,0.377
5,RRIRDRPPRLPRPRPRPFNSPRP,-0.0203
6,RRIRYRPPRLPRPRPRPFEQPRP,-0.382
7,RRIRFRPPRLPRPRPRPHNNPRP,-0.638
8,RRIRYRPPRLPRPRPRPSMEPRP,-0.408
9,RRIRPRPPRLPRPRPRPSGSPRP,0.0191
10,RRIRTRPPRLPRPRPRPVPAPRP,0.35
11,RRIRRRPPRLPRPRPRPCDFPRP,-0.128
12,RRIRQRPPRLPRPRPRPVPNPRP,0.154
13,RRIRRRPPRLPRPRPRPDCAPRP,0.345
14,RRIRTRPPRLPRPRPRPASAPRP,0.916
15,RRIRSRPPRLPRPRPRPMIDPRP,-0.249
16,RRIRKRPPRLPRPRPRPETRPRP,0.269
17,RRIRKRPPRLPRPRPRPDKSPRP,0.0207
18,RRIRLRPPRLPRPRPRPQQWPRP,-0.0673
19,RRIRKRPPRLPRPRPRPTSRPRP,0.159
20,RRIRGRPPRLPRPRPRPEYKPRP,0.375
21,RRIRIRPPRLPRPRPRPYEQPRP,-0.868
22,RRIRDRPPRLPRPRPRPSLCPRP,-0.0148
23,RRIRWRPPRLPRPRPRPYNCPRP,-0.331
24,RRIRRRPPRLPRPRPRPGALPRP,0.502
25,RRIRRRPPRLPRPRPRPRPIPRP,0.945

row,Sequence,shrunken log2 fold change
1,RRIRVRPPRLPRPRPRPAKCPRP,0.0602
2,RRIRKRPPRLPRPRPRPCPQPRP,0.242
3,RRIRVRPPRLPRPRPRPLVFPRP,-0.00523
4,RRIRARPPRLPRPRPRPSGTPRP,-0.0328
5,RRIRWRPPRLPRPRPRPLFGPRP,0.352
6,RRIRVRPPRLPRPRPRPSMEPRP,-0.159
7,RRIRWRPPRLPRPRPRPAKKPRP,0.0808
8,RRIRSRPPRLPRPRPRPVRSPRP,0.255
9,RRIRPRPPRLPRPRPRPTYTPRP,-0.272
10,RRIRTRPPRLPRPRPRPRWNPRP,0.969
11,RRIRARPPRLPRPRPRPHQTPRP,-0.103
12,RRIRSRPPRLPRPRPRPLANPRP,0.271
13,RRIRRRPPRLPRPRPRPQDHPRP,-0.0159
14,RRIRPRPPRLPRPRPRPWELPRP,0.0728
15,RRIRNRPPRLPRPRPRPVAQPRP,0.089
16,RRIRERPPRLPRPRPRPHQEPRP,0.0187
17,RRIRQRPPRLPRPRPRPDDLPRP,0.0248
18,RRIRYRPPRLPRPRPRPFSNPRP,0.0549
19,RRIRTRPPRLPRPRPRPQLDPRP,-0.0457
20,RRIRKRPPRLPRPRPRPFDFPRP,0.0615
21,RRIRWRPPRLPRPRPRPDHEPRP,-0.0396
22,RRIRLRPPRLPRPRPRPSFSPRP,-0.365
23,RRIRMRPPRLPRPRPRPANCPRP,-0.242
24,RRIRDRPPRLPRPRPRPGAKPRP,0.592
25,RRIRTRPPRLPRPRPRPRKEPRP,0.102

row,Sequence,shrunken log2 fold change
1,RRIRFRPPRLPRPRPRPLAQPRP,0.097
2,RRIRPRPPRLPRPRPRPLPCPRP,-0.407
3,RRIRTRPPRLPRPRPRPLNIPRP,-0.36
4,RRIRPRPPRLPRPRPRPYEQPRP,-0.116
5,RRIRHRPPRLPRPRPRPHSNPRP,-0.167
6,RRIRERPPRLPRPRPRPTRAPRP,0.571
7,RRIRIRPPRLPRPRPRPKWHPRP,-0.27
8,RRIRPRPPRLPRPRPRPIYGPRP,-0.0498
9,RRIRWRPPRLPRPRPRPAILPRP,0.0915
10,RRIRKRPPRLPRPRPRPLAIPRP,0.0828
11,RRIRERPPRLPRPRPRPGFNPRP,0.0108
12,RRIRTRPPRLPRPRPRPYWEPRP,-0.0372
13,RRIRYRPPRLPRPRPRPGLVPRP,-0.217
14,RRIRPRPPRLPRPRPRPIHHPRP,-0.454
15,RRIRDRPPRLPRPRPRPLMSPRP,0.101
16,RRIRPRPPRLPRPRPRPQNCPRP,-0.621
17,RRIRTRPPRLPRPRPRPGYHPRP,-0.315
18,RRIRVRPPRLPRPRPRPRTIPRP,-0.0961
19,RRIRDRPPRLPRPRPRPQLYPRP,-0.162
20,RRIRERPPRLPRPRPRPTIEPRP,-0.0577
21,RRIRMRPPRLPRPRPRPYPIPRP,0.0414
22,RRIRARPPRLPRPRPRPSVWPRP,-0.0231
23,RRIRKRPPRLPRPRPRPMNTPRP,-0.287
24,RRIRVRPPRLPRPRPRPWDMPRP,-0.184
25,RRIRMRPPRLPRPRPRPFLCPRP,-0.0722

row,Sequence,shrunken log2 fold change
1,RRIRGRPPRLPRPRPRPAHHPRP,0.452
2,RRIRARPPRLPRPRPRPSYWPRP,-0.184
3,RRIRPRPPRLPRPRPRPMNHPRP,-0.11
4,RRIRMRPPRLPRPRPRPWARPRP,0.306
5,RRIRDRPPRLPRPRPRPTKLPRP,0.0975
6,RRIRDRPPRLPRPRPRPRHEPRP,-0.000978
7,RRIRTRPPRLPRPRPRPMGLPRP,0.12
8,RRIRYRPPRLPRPRPRPRPSPRP,0.0768
9,RRIRSRPPRLPRPRPRPSRTPRP,0.822
10,RRIRPRPPRLPRPRPRPGDSPRP,0.035
11,RRIRGRPPRLPRPRPRPKLLPRP,0.84
12,RRIRNRPPRLPRPRPRPRQIPRP,0.151
13,RRIRQRPPRLPRPRPRPQHQPRP,0.26
14,RRIRVRPPRLPRPRPRPTCEPRP,0.243
15,RRIRWRPPRLPRPRPRPVQKPRP,0.0836
16,RRIRYRPPRLPRPRPRPGDCPRP,-0.189
17,RRIRFRPPRLPRPRPRPRRHPRP,0.822
18,RRIRQRPPRLPRPRPRPQYYPRP,-0.243
19,RRIRVRPPRLPRPRPRPMIRPRP,-0.147
20,RRIRGRPPRLPRPRPRPLMHPRP,0.592
21,RRIRIRPPRLPRPRPRPGFWPRP,0.0561
22,RRIRFRPPRLPRPRPRPATHPRP,0.167
23,RRIRTRPPRLPRPRPRPHYPPRP,-0.782
24,RRIRIRPPRLPRPRPRPPTTPRP,0.0744
25,RRIRLRPPRLPRPRPRPIVHPRP,0.67

row,Sequence,shrunken log2 fold change
1,RRIRNRPPRLPRPRPRPIEYPRP,-0.0134
2,RRIRIRPPRLPRPRPRPWMDPRP,0.0312
3,RRIRKRPPRLPRPRPRPRPMPRP,0.585
4,RRIRPRPPRLPRPRPRPTMFPRP,-0.164
5,RRIRFRPPRLPRPRPRPRPYPRP,-0.175
6,RRIRYRPPRLPRPRPRPMPLPRP,-0.398
7,RRIRKRPPRLPRPRPRPKQNPRP,0.706
8,RRIRDRPPRLPRPRPRPAAPPRP,0.545
9,RRIRMRPPRLPRPRPRPYGDPRP,0.0122
10,RRIRVRPPRLPRPRPRPKGDPRP,0.275
11,RRIRDRPPRLPRPRPRPRMPPRP,0.156
12,RRIRYRPPRLPRPRPRPIECPRP,0.00468
13,RRIRNRPPRLPRPRPRPGDIPRP,0.0338
14,RRIRKRPPRLPRPRPRPIQEPRP,0.000523
15,RRIRHRPPRLPRPRPRPHHYPRP,-0.533
16,RRIRLRPPRLPRPRPRPGPVPRP,0.753
17,RRIRWRPPRLPRPRPRPHWEPRP,0.323
18,RRIRNRPPRLPRPRPRPDMDPRP,-0.0127
19,RRIRGRPPRLPRPRPRPQPWPRP,0.68
20,RRIRIRPPRLPRPRPRPKQCPRP,-0.178
21,RRIRMRPPRLPRPRPRPKMMPRP,0.351
22,RRIRIRPPRLPRPRPRPTFAPRP,-0.176
23,RRIRKRPPRLPRPRPRPVPSPRP,-0.156
24,RRIRARPPRLPRPRPRPTGFPRP,0.105
25,RRIRKRPPRLPRPRPRPSDNPRP,0.0936

# Source: the supplement of paper PMC9112550, “Optimization of the antimicrobial peptide Bac7 by deep mutational scanning” (BMC Biology, 2022)
